From the RNAGym collection of RNA variant scans (doi:10.1073/pnas.2313332121)
Variants at the floor of the assay were thinned out.

B1: TPR 5TU (parent)
chain: GGAUCUUCUCGAUCUAACAAAAAAGACAAAUCUGCCACAAAGCUUGAGAGCAUCUUCGGAUGCAGAGGCGGCAGCCUUCGGUGGCGCGAUAGCGCCAACGUUCUCAACUAUGACACGCAAAACGCGUGCUCCGUUGAAUGGAGUUUAUCAUG

Variants of: B1
Assay: polymerase ribozyme fitness, log enrichment relative to wild type (log ratio); higher = more active; in vitro selection for triplet polymerase activity
Outline: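 A heterodimeric triplet polymerase ribozyme had each of its subunits mutagenized by PCR into a library, which was transcribed. One round of in vitro selection, done in triplicate, annealed each library with a biotinylated primer, its partner subunit and triplets, then incubated it frozen at −7 °C before gel excision of extended constructs, streptavidin-bead capture and RT-PCR. Fitness is the logarithm of genotype enrichment relative to wild-type enrichment, based on Illumina sequencing of inputs and outputs and inverse-variance-weighted replicate averages. A base-2 logarithm is used, and genotypes were kept only with ≥10 input reads and ≥1 read per output.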

Variant	polymerase ribozyme fitness (log ratio)
A40G C76U C95U C116G	-3.42
A40C G140U	-3.39
A39C C96G A137U	≤ -4.2
A39U U56A C93U	-3.55
A39U A107G G140C	≤ -4.2
A40G A47C C57U C85A A115U A119C A122G U144A	≤ -4.2
A40C C75G U82G C93G A138G G140C	≤ -4.2
A40C G42A A49G G62C C93A	≤ -4.2
A40C A49C U56A A60C G84A G136A	≤ -4.2
A40C C96G A119G	0.217
A40C C85U	-0.549
A40C C85A	-2.39
A40C C57U A60G U61A	-2.29
A39U G100A A110G A150U	≤ -4.2
A40C C54U G141U	0.7
A40C A98G C131U U134A	-2.13
A39C U56G A73G	-3.36
A39G U53A C87U A115C	-3.83
A40C U44G U53A C87G A107U A121U G124C U130A G143A	≤ -4.2
A40G A73G G86A	-4.16
A39U G58C G74U A91G C123G G133A U146C	≤ -4.2
A39G G42C A47C A91U C93U U101G A119U C125U G133U G136A	≤ -4.2
A40C C51A G86C U139C	≤ -4.2
A39G U77A G143C	≤ -4.2

Variant	polymerase ribozyme fitness (log ratio)
A40C A52C G83A	-2.55
A40C G92U G94A	0.834
A40C G70A	-2.97
A39U A40C G42U G48A A60U U82G C85A U104A U127C	≤ -4.2
A40C A52U U55A C93U	-3.92
A40C A60U	0.0412
A39G A73G U109A A119U	-3.91
A40C G50A	-2.43
A40C G83A A97G	-1.2
A39U A91C G141C U148G	≤ -4.2
A39U C79G G84U	≤ -4.2
A39G G50C C51G G58A C93G U139G	≤ -4.2
A39C G133C U146A	-3.57
A39U U55G G88A U104A U135A U144C C149A	≤ -4.2
A40C U45A G50A A73U G92A	≤ -4.2
A40C C131G	-3.13
A39U U139A	-3.87
A39U A41C G80C G84U A142C C149A	≤ -4.2
A39U A60G A137U	-4.19
A40C U55A G59C C69U G84A	-2.39
A39U C76A G86C G126A C132U U134A	≤ -4.2
A39U C54U U61A C93U A106U	≤ -4.2
A39U C95U C96A G124A	-3.2
A39U G86U C114U A120U G140A	≤ -4.2

Variant	polymerase ribozyme fitness (log ratio)
A39C U56A G59C	-2.08
A40C U44G C63U C95U C103G A115G A142C	≤ -4.2
A39U U45G C85A A91C G92C	≤ -4.2
A40C C76U C95A C131G G141U	-1.68
A40C C125A	-0.0259
A39U A122G U145G	-2.48
A39C G59C G86A	-3.73
A39C G141U	-2.91
A39U C69U C95U C129G	≤ -4.2
A39G U101C	-1.89
A39G C87U A147C C149A	≤ -4.2
A39C G143U	-4.15
A39G A41G A49G G83C U145A	-3.94
A39U G68A A73G C87G C132A G141C U144C	≤ -4.2
A40G A52G A91U U102C A138U G143U	≤ -4.2
A39G G59C G71A U101C A115G G140U	≤ -4.2
A39C G42C C76A U144G	≤ -4.2
A39G G83A U101A	≤ -4.2
A39C G84A U144A	-2.69
A39U U44A C79G C132G U139A	≤ -4.2
A40C U146G	-0.247
A39C C85U C149U	-2.98
A39U A41C A98G	-2.72
A39C C87U U101G G117U	-3.2

Variant	polymerase ribozyme fitness (log ratio)
A39C G92U C95A G112A U145G	≤ -4.2
A40C G94U C95G	-3.87
A39U C54U U55G C93U C103U	≤ -4.2
A39U C43A C75G C87U C118U	≤ -4.2
A40G A52C A66U C75G C79G A120C	≤ -4.2
A39U C69A G74C C76U C87A	≤ -4.2
A40C C69G G80A	-0.716
A40C G84A U90G G100C	≤ -4.2
A39G C75U C85U A137G	-3.67
A39G G42A C87G	≤ -4.2
A39C U53A G62C U144A	≤ -4.2
A39C G68A G80A C118U G128U	≤ -4.2
A40C U56A A89G	-0.978
A39G G70A U77G G141A A142C	≤ -4.2
A40G C85U	-2.16
A40G A91G A115G C116G A142C	≤ -4.2
A39U A52U C76G G83A	≤ -4.2
A39G A47C C123U A150G G152A	-3.23
A39U U61C C96A	-3.93
A40C U56A G128C	-3.92
A40G C85G U111G U151C	≤ -4.2
A39U C96A	-2.81
A39U C96G	-2.11
A39G C51U A52U G74A	≤ -4.2

Variant	polymerase ribozyme fitness (log ratio)
A39G A60C G67U C99G G143C	≤ -4.2
A40C G62U A119U	-0.408
A39G G86C U109C G128U G140C	≤ -4.2
A39G G88A A142U	≤ -4.2
A39G G80A G126U A138G	≤ -4.2
A39G A52C C54G C85U C125U G126U A147C	≤ -4.2
A40C C87A	-3.55
A40C C87U	-0.91
A39C U53G C85U	-4.06
A39G A137G	-3.57
A40C C93A C99U G133C	-3.98
A39G G59A C96G U146C	-3.67
A39U U45C C93U	≤ -4.2
A39U U53A C75G G86U U146G	≤ -4.2
A40C G84A A97U	-2.32
A39G U55A G71A G92C C96U C131U C149A	≤ -4.2
A40C G143A	-0.684
A39G G84A C116U	-1.91
A40C G94U C129G U139A G141U U146C	≤ -4.2
A39U C85U	-2.27
A40C C85A G92U A119C A147C	≤ -4.2
A39G U77G	≤ -4.2
A39C U53C U135C	-3.94
A39G U45A A49U U61A C75U G83U C129G U144G	≤ -4.2

Variant	polymerase ribozyme fitness (log ratio)
A39U C76G G92U C108U	≤ -4.2
A39G C99A	-3.78
A40C U82C G94U	-0.916
A40C C57A U139C	-3.43
A39U G117U	-1.04
A39U G46C G48A G50C U56A G84U	≤ -4.2
A40C C75G C85A G141U	≤ -4.2
A40C C95U	-0.646
A40C U144A	-0.312
A40C A52C G86A A98G	-2.37
A39U U77G G124C U135G U146A	≤ -4.2
A40C U55G G58A U130A U135C	≤ -4.2
A39U G100C U148A	-4.2
A39U A73U	-4.11
A40G A60G U61C G84A	-3.52
A39U C54U C96A	-2.72
A39U G81A C99U U104C G117A	-3.48
A39U G74A C85U A91C C125A	≤ -4.2
A40G C85A G133C G136A	-3.86
A39C U53A G86C C105A A119U	≤ -4.2
A40C U55A G88A C108G C118U U130A	≤ -4.2
A40C G46C C57A G74C C103A A107U C118G U134G G140C	≤ -4.2
A40C C76U C93G G152A	≤ -4.2
A40C U135A	-0.385

Variant	polymerase ribozyme fitness (log ratio)
A39G G80U C95U C116G	-3.6
A40C A47C C93A A137G U146C	-4.13
A39G C54A A91G G94A	≤ -4.2
A39C G58A G59C	-1.49
A40G A73U A89G C93G U104G A106G U134A	≤ -4.2
A40C G88U C96U A122U U127G U148A A150U	≤ -4.2
A39U C43U U111G	≤ -4.2
A39G A147U	-0.693
A39U G50U G83A C96G C103U U135G	≤ -4.2
A40C A41C G58C A91U G124A C125A	≤ -4.2
A39U A40U A91U C95G	≤ -4.2
A39G C63G G70C C87U A91G C99A A120G	≤ -4.2
A40C G92C	-1.84
A39U U53C C108G C149U	≤ -4.2
A39U A60U G81A C85A C93U	≤ -4.2
A39U C85G C96A A107G	≤ -4.2
A39G C57G C105G A147U	-3.4
A39U A89G G126U	-3.58
A40C C63U U82G G83C C96G A120C A121U U144A	-0.868
A39U G92C U127A	≤ -4.2
A39U U78A G83A G84C A115U U134C G136U	≤ -4.2
A40C A64G G83U G133C A138C	≤ -4.2
A40C U55A G59A A113U C123A	-0.982
